Experimental data: PMC6024076, “mRNA Deadenylation Is Coupled to Translation Rates by the Differential Activities of Ccr4-Not Nucleases”

T1: Pab1 (Schizosaccharomyces pombe, UniProt P31209 80-653)
T1 sequence: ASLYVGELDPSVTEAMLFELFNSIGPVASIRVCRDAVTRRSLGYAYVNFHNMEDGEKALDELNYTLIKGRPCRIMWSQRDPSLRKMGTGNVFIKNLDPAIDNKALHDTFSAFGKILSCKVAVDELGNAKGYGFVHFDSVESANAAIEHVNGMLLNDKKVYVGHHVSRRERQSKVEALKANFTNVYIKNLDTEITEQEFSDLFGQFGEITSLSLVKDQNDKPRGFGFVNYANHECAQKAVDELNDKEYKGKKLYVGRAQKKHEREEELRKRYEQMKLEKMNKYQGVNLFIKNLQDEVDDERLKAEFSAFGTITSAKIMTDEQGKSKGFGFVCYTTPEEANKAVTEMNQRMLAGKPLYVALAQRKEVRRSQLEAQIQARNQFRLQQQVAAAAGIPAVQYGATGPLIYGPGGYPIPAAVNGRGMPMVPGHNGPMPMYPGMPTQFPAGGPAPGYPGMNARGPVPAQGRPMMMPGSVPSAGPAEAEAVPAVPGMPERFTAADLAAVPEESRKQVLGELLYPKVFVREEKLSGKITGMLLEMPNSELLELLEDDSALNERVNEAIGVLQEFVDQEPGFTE


Assays:
[1] = biological target: GST-Pab1 (S. pombe poly(A)-binding protein Pab1) (S. pombe) (UniProt P31209)
Pab1 [2] = biological target: T1, Pab1; test: fluorescence polarization; one-site quadratic fit; printed label order scrambled, assigned by koff/kon; FP: 20 mM HEPES pH 7.4, 150 mM NaCl, 22 C, 2 h, 0.2 nM RNA; switchSENSE: same buffer + 0.001% Tween-20, 25 nM Pab1, 20 C; EMSA: 20 mM PIPES pH 6.8, 10 mM KCl, 90 mM NaCl, 2 mM Mg(OAc)2, 0.1 mM TCEP, 22 C, 200 nM RNA; conditions: protein: recombinant; tags: N-terminal GST cleaved with 3C protease; label: 5' 6-FAM
Pab1 [3] = biological target: T1, Pab1; test: fluorescence polarization; FP: 20 mM HEPES pH 7.4, 150 mM NaCl, 22 C, 2 h, 0.2 nM RNA; switchSENSE: same buffer + 0.001% Tween-20, 25 nM Pab1, 20 C; EMSA: 20 mM PIPES pH 6.8, 10 mM KCl, 90 mM NaCl, 2 mM Mg(OAc)2, 0.1 mM TCEP, 22 C, 200 nM RNA; conditions: protein: recombinant; tags: N-terminal GST cleaved with 3C protease; label: 5' 6-FAM

Row | Molecule | Kd (Pab1 [3]) | further results
1 | S. pombe Ccr4-Not complex (WT), seven core subunits (from UniProt O74874 1-690; O74856 1-335; P87112 1-2100; P87240 1-306; O13870 1-640; Q92368 1-283) |  | average rate of deadenylation of 20-mer-A60 RNA by purified Ccr4-Not with Pab1 (two molecules per RNA; GST cleaved) against without Pab1 [1]: 3 fold
2 | AAAAAAAAAAAAAAAAAAAAAAAAAAAAAA (ssRNA) [A30] |  | Kd (Pab1 [2]): 0.25 ± 0.03 nM
3 | AAAAAAAAAAAAAAAAAAAAAA (ssRNA) [A22] | ~0.5 nM | 
4 | AAAAAAAAAAAA (ssRNA) [A12] | ~27 nM | 
